These results are taken from the supplement of paper PMC11780869.

This data set relates to Bacillus subtilis. The data set can be described thus: cleaved RNA product abundance (RNA/gDNA barcode ratio) relative to median wild-type variant (ratio to wild type); higher = more accumulation of the downstream cleavage product. The note with it: cleavage site: cggR-gapA (positions -7 to +36 mutated). As to the method: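 MPRA in B. subtilis. Mutagenized RNase Y cleavage-site regions (9% mutation rate) were inserted into a barcoded reporter mRNA (truncated aprE or tetM). Cells were grown in LB at 37°C to OD600 0.3. The cleaved RNA isoform was gel-purified and its barcodes counted; the RNA:gDNA barcode ratio was normalised to the median wild-type variant, and the median over barcodes is reported per variant. The printed sequence is the variable window only; the reporter flanks are not printed.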

Setting [1] is: experiment (reporter, strain, medium): exp 4a: truncated aprE reporter, strain BJT201 with 2% xylose (RNase J1 expressed).
Setting [2] is: experiment (reporter, strain, medium): exp 2b: truncated aprE reporter, strain BJT200.
Where [3] appears, read: experiment (reporter, strain, medium): exp 6: tetM reporter, strain 168.

Turning to “ACAGACGAAGGAGCCGCAAAGAACTTATTAAGGGATGAATAATCCCTCAATATAAATATTTCTCACTTATTTAAA”, the “cleaved RNA product abundance” value under setting [1] came to 0.307.

Take “ACAGACGAAGGAGCCGCAAAGAACTTATTAAGGGATGAATAATCCCTCAATATATATATCTCTCACTTATTTAAA”: under setting [1], the “cleaved RNA product abundance” value stood at 0.454. As to “ACAGACGAAGGAGCCGCAAAGAACTTATTAAGGGATGAATAATCCCTCAGTATAAATATCTCTCACTTATTTAAA”, the “cleaved RNA product abundance” value under setting [2] was 0.128 and the “cleaved RNA product abundance” value under setting [1] came out at 0.309. Regarding “ACAGACGAAGGAGCCGCAAAGAACTTATTAAGGGATGAATAATCCCTCCATATAAATATCTCTCACTTATTTAAA”, under setting [1], the “cleaved RNA product abundance” value was 0.28. Turning to “ACAGACGAAGGAGCCGCAAAGAACTTATTAAGGGATGAATAATCCCTCGATATAAATATCTCTCACTTATTTAAA”, the “cleaved RNA product abundance” value under setting [1] was found to be 0.269. Still for that read-out and setting: under “ACAGACGAAGGAGCCGCAAAGAACTTATTAAGGGATGAATAATCCCTCTATATAAATATCTCTCACTTATTTAAA” stands 0.332.

As to “ACAGACGAAGGAGCCGCAAAGAACTTATTAAGGGATGAATAATCCCTGAATATAAATATCTCTCACTTATTTAAA”, the “cleaved RNA product abundance” value turned out to be 0.264 under setting [2] and 0.213 under setting [1].

For “ACAGACGAAGGAGCCGCAAAGAACTTATTAAGGGATGAATAATCCCTTAATATAAATATCTCTCACTTATTTAAA”, the “cleaved RNA product abundance” value is 0.369 under setting [1] and 0.271 under setting [3]. As for “ACAGACGAAGGAGCCGCAAAGAACTTATTAAGGGATGAATAATCCGTCAATATAAATATCTCTCACTTATTTAAA”, under setting [1], the “cleaved RNA product abundance” value was found to be 0.155.

Regarding “ACAGACGAAGGAGCCGCAAAGAACTTATTAAGGGATGAATAATCCTTCAATATAAATATCTCTCACTTATTTAAA”, the “cleaved RNA product abundance” value under setting [1] worked out at 0.342. Still for that read-out and setting: under “ACAGACGAAGGAGCCGCAAAGAACTTATTAAGGGATGAATAATCTCTCAATATAAATATCTCTCACTTATTTAAA” stands 0.418. For the sequence “ACAGACGAAGGAGCCGCAAAGAACTTATTAAGGGATGAATAATTCATCAATATAAATATCTCTCACTTATTTAAA”, the “cleaved RNA product abundance” value under setting [1] is 0.372. As for “ACAGACGAAGGAGCCGCAAAGAACTTATTAAGGGATGAATAATTCCTCAATATAAATATCTCTCACTTATTTAAA”, the “cleaved RNA product abundance” value amounted to 0.315 under setting [2] and 0.32 under setting [1]. As for “ACAGACGAAGGAGCCGCAAAGAACTTATTAAGGGATGAATCATCCCTCAATATAAATATCTCTCACTTATTTAAA”, the “cleaved RNA product abundance” value under setting [1] is 0.36. Turning to “ACAGACGAAGGAGCCGCAAAGAACTTATTAAGGGATGAATGATCCCTCAATATAAATATCTCTCACTTATTTAAA”, the “cleaved RNA product abundance” value under setting [1] was determined as 0.282. Same read-out and setting: the value for “ACAGACGAAGGAGCCGCAAAGAACTTATTAAGGGATGAATTATCCCACAATATAAATATCTCTCACTTATTTAAA” was 0.17. Take “ACAGACGAAGGAGCCGCAAAGAACTTATTAAGGGATGAATTATCCCTCAATATAAATATCTCTCACTTATTTAAA”: the “cleaved RNA product abundance” value reads like this: under setting [2], 0.284; under setting [1], 0.31. In the case of “ACAGACGAAGGAGCCGCAAAGAACTTATTAAGGGATGACTAATCCCTCAATATAAATATCTCTCACTTATTTAAA”, the “cleaved RNA product abundance” value under setting [1] was determined as 0.382.

As to “ACAGACGAAGGAGCCGCAAAGAACTTATTAAGGGATGAGTAATCCCTCAATATAAATATCTCTCACTTATTTAAA”, the “cleaved RNA product abundance” value under setting [1] is 0.421.

As to “ACAGACGAAGGAGCCGCAAAGAACTTATTAAGGGATGTATAATCCCTCAATATAAATATCTCTCACTTATTTAAA”, the “cleaved RNA product abundance” value under setting [1] was 0.637.

With “ACAGACGAAGGAGCCGCAAAGAACTTATTAAGGGATTAATAATCCCTCAATATAAATATCTCTCACTTATTTAAA”, the “cleaved RNA product abundance” value under setting [1] was determined as 0.621. In the case of “ACAGACGAAGGAGCCGCAAAGAACTTATTAAGGGGTGAATAATCCCTCAATATAAATATCTCTCACTTATTTAAA”, the “cleaved RNA product abundance” value under setting [1] worked out at 0.411. As for “ACAGACGAAGGAGCCGCAAAGAACTTATTAAGGGTTGAATAATCCCTCAATATAAATATCTCTCACTTATTTAAA”, the “cleaved RNA product abundance” value by setting is: under setting [2], 0.218; under setting [1], 0.232. In the case of “ACAGACGAAGGAGCCGCAAAGAACTTATTAAGGTATGAATAATCCCTCAATATAAATATCTCTCACTTATTTAAA”, the “cleaved RNA product abundance” value came out at 0.0959 under setting [2] and 0.108 under setting [1]. With “ACAGACGAAGGAGCCGCAAAGAACTTATTAAGTGATGAATAATCCCTCAATATAAATATCTCTCACTTATTTAAA”, the “cleaved RNA product abundance” value under setting [1] was 0.0735.

In the case of “ACAGACGAAGGAGCCGCAAAGAACTTATTAATGGATGAATAATCCCTCAATATAAATATCTCTCACTTATTTAAA”, the “cleaved RNA product abundance” value was found to be 0.102 under setting [2] and 0.142 under setting [1]. For the sequence “ACAGACGAAGGAGCCGCAAAGAACTTATTACGGGATGAATAATCCCTCAATATAAATATCTCTCACTTATTTAAA”, the “cleaved RNA product abundance” value under setting [1] was 0.248.

As to “ACAGACGAAGGAGCCGCAAAGAACTTATTATGGGATGAATAATCCCTCAATATAAATATCTCTCACTTATTTAAA”, the “cleaved RNA product abundance” value under setting [1] was found to be 0.233. For the sequence “ACAGACGAAGGAGCCGCAAAGAACTTATTCAGGGATGAATAATCCCTCAATATAAATATCTCTCACTTATTTAAA”, the “cleaved RNA product abundance” value under setting [1] was determined as 0.525. For the sequence “ACAGACGAAGGAGCCGCAAAGAACTTATTTAGGGATGAATAATCCCTCAATATAAATATCTCTCACTTATTTAAA”, the “cleaved RNA product abundance” value stood at 0.442 under setting [2] and 0.321 under setting [1]. “ACAGACGAAGGAGCCGCAAAGAACTTTTTAAGGGATGAATAATCCCTCAATATAAATATCTCTCACTTATTTAAA”: the “cleaved RNA product abundance” value under setting [2] amounted to 0.204. Take “ACAGACGAAGGAGCCGCAAAGAAGAAATTAAGGGATGAATAATCCCTCAATATAAATATCTCTCACTTATTTAAA”: the “cleaved RNA product abundance” value by setting is: under setting [2], 0.171; under setting [1], 0.185.

As for “ACAGACGAAGGAGCCGCAAAGAAGAAATTAAGGGATGAATAATTCCTCAATATAAATATCTCTCACTTATTTAAA”, the “cleaved RNA product abundance” value under setting [1] was 0.129. As for “ACAGACGAAGGAGCCGCAAAGAAGATAATAAGGGATGAATAATCCCTCAATATAAATATCTCTCACTTATTTAAA”, the “cleaved RNA product abundance” value under setting [1] is 0.227. For the sequence “ACAGACGAAGGAGCCGCAAAGAAGATACTAAGGGATGAATAATCCCTCAATATAAATATCTCTCACTTATTTAAA”, the “cleaved RNA product abundance” value under setting [2] is 0.0772. “ACAGACGAAGGAGCCGCAAAGAAGATAGTAAGGGATGAATAATCCCTCAATATAAATATCTCTCACTTATTTAAA”: the “cleaved RNA product abundance” value under setting [1] stood at 0.265. Take “ACAGACGAAGGAGCCGCAAAGAAGATATAAAGGGATGAATAATCCCTCAATATAAATATCTCTCACTTATTTAAA”: the “cleaved RNA product abundance” value by setting is: under setting [2], 0.272; under setting [1], 0.514. With “ACAGACGAAGGAGCCGCAAAGAAGATATCAAGGGATGAATAATCCCTCAATATAAATATCTCTCACTTATTTAAA”, under setting [1], the “cleaved RNA product abundance” value was 0.522. In the case of “ACAGACGAAGGAGCCGCAAAGAAGATATTAAAGGATGAATAATCCCTCAATATAAATATCTCTCACTTATTTAAA”, the “cleaved RNA product abundance” value by setting is: under setting [2], 0.199; under setting [1], 0.264. With “ACAGACGAAGGAGCCGCAAAGAAGATATTAACGGATGAATAATCCCTCAATATAAATATCTCTCACTTATTTAAA”, under setting [1], the “cleaved RNA product abundance” value came to 0.207. Take “ACAGACGAAGGAGCCGCAAAGAAGATATTAAGAGATGAATAATCCCTCAATATAAATATCTCTCACTTATTTAAA”: the “cleaved RNA product abundance” value stood at 0.128 under setting [2] and 0.221 under setting [1].

In the case of “ACAGACGAAGGAGCCGCAAAGAAGATATTAAGGAATGAATAATCCCTCAATATAAATATCTCTCACTTATTTAAA”, the “cleaved RNA product abundance” value under setting [2] worked out at 0.12 and the “cleaved RNA product abundance” value under setting [1] came out at 0.175. In the same order, the values of “ACAGACGAAGGAGCCGCAAAGAAGATATTAAGGCATGAATAATCCCTCAATATAAATATCTCTCACTTATTTAAA” are 0.088 and 0.17.

Regarding “ACAGACGAAGGAGCCGCAAAGAAGATATTAAGGGAAGAATAATCCCTCAATATAAATATCTCTCACTTATTTAAA”, the “cleaved RNA product abundance” value under setting [1] worked out at 1. On the same count and under the same terms, the value for “ACAGACGAAGGAGCCGCAAAGAAGATATTAAGGGAGGAATAATCCCTCAATATAAATATCTCTCACTTATTTAAA” was 0.643. Take “ACAGACGAAGGAGCCGCAAAGAAGATATTAAGGGATAAATAATCCCTCAATATAAATATCTCTCACTTATTTAAA”: the “cleaved RNA product abundance” value was found to be 0.78 under setting [1] and 0.468 under setting [3]. As for “ACAGACGAAGGAGCCGCAAAGAAGATATTAAGGGATCAATAATCCCTCAATATAAATATCTCTCACTTATTTAAA”, the “cleaved RNA product abundance” value reads like this: under setting [2], 0.501; under setting [1], 0.815. Consider “ACAGACGAAGGAGCCGCAAAGAAGATATTAAGGGATGAAAAATCCCTCAATATAAATATCTCTCACTTATTTAAA”, for which, under setting [1], the “cleaved RNA product abundance” value was 0.376. As for “ACAGACGAAGGAGCCGCAAAGAAGATATTAAGGGATGAACAATCCCTCAATATAAATATCTCTCACTTATTTAAA”, under setting [1], the “cleaved RNA product abundance” value was 0.647. On the same count and under the same terms, the value for “ACAGACGAAGGAGCCGCAAAGAAGATATTAAGGGATGAATAAACCCTCAATATAAATATCTCTCACTTATTTAAA” was 0.574.

Take “ACAGACGAAGGAGCCGCAAAGAAGATATTAAGGGATGAATAAGCCCTCAATATAAATATCTCTCACTTATTTAAA”: the “cleaved RNA product abundance” value under setting [1] came to 0.432. For “ACAGACGAAGGAGCCGCAAAGAAGATATTAAGGGATGAATAATACCTCAATATAAATATCTCTCACTTATTTAAA”, the “cleaved RNA product abundance” value amounted to 0.162 under setting [2] and 0.237 under setting [1].
